# Measured values reported in patent US20240342305A1 (published 2024).
# B1: chimeric antigen receptor P7D4-δZ (P7D4 scFv-CD8-CD3δzeta), on T cells (other)
# chain: QVQLQESGGGLVQPGRSLRLSCAASGFTFSSYAMHWVRQAPGKGLEWVSAISGSGGSTYYADSVKGRFTISRDNSKNTLYLQMNSLRAEDTAVYYCAKDRRGSHADAFDVWGQGTLVTVSSGGGGSGGGGSGGGGSQSALTQPPSASGSPGQSVTISCTGTSSDVGGYNYVSWYQQYPGKAPKLLIYGNSNRPSGVPDRFSGSKSGTSASLAITGLQAEDGADYYCQSYDSSLRVVFGGGTKVTVLGTTTPAPRPPTPAPTIASQPLSLRPEACRPAAGGAVHTRGLDFACDIYIWAPLAGTCGVLLLSLVITRVKFSRSADAPA
# notes: Chimeric antigen receptor on lentivirus-infected human T cells; negative control without ITAM; also called P7D4-8Z; P7D4 scFv-δZ
# B2: chimeric antigen receptor P7D4-BBZ (P7D4 scFv-CD8-CD137-CD3 zeta), on T cells (other)
# chain: QVQLQESGGGLVQPGRSLRLSCAASGFTFSSYAMHWVRQAPGKGLEWVSAISGSGGSTYYADSVKGRFTISRDNSKNTLYLQMNSLRAEDTAVYYCAKDRRGSHADAFDVWGQGTLVTVSSGGGGSGGGGSGGGGSQSALTQPPSASGSPGQSVTISCTGTSSDVGGYNYVSWYQQYPGKAPKLLIYGNSNRPSGVPDRFSGSKSGTSASLAITGLQAEDGADYYCQSYDSSLRVVFGGGTKVTVLGTTTPAPRPPTPAPTIASQPLSLRPEACRPAAGGAVHTRGLDFACDIYIWAPLAGTCGVLLLSLVITLYCKRGRKKLLYIFKQPFMRPVQTTQEEDGCSCRFPEEEEGGCELRVKFSRSADAPAYKQGQNQLYNELNLGRREEYDVLDKRRGRDPEMGGKPRRKNPQEGLYNELQKDKMAEAYSEIGMKGERRRGKGHDGLYQGLSTATKDTYDALHMQALPPR
# notes: Second generation CAR on human T cells; also called P7D4 scFv-BBZ
# B3: single chain antibody P1B12E (phage-displayed scFv) (scFv)
# scFv: QVQLVESGAEVKKPGASVKVSCKASGGTFSSYAISWVRQAPGQGLEWMGGIIPIFGTANYAQKFQGRVTITADESTSTAYMELSSLRSEDTAVYYCAKSPFSGTPGEYWGRGTLVTVSSGGGGSGGGGSGGGGSEIVLTQSPGTLSLSPGERATLSCRASQSVSSNYLAWYQQKPGQAPRLLIYGASRRATGIPDRFSGSGSGTDFTLTISRVEPEDFAVYHCQQYGASPKTFGQGTKLEIKR
# notes: Tested as single phage (M13, phagemid pCantab 5E) culture supernatant in ELISA; the phage coat fusion is not described
# B4: single chain antibody P7D4 (phage-displayed scFv) (scFv)
# scFv: QVQLQESGGGLVQPGRSLRLSCAASGFTFSSYAMHWVRQAPGKGLEWVSAISGSGGSTYYADSVKGRFTISRDNSKNTLYLQMNSLRAEDTAVYYCAKDRRGSHADAFDVWGQGTLVTVSSGGGGSGGGGSGGGGSQSALTQPPSASGSPGQSVTISCTGTSSDVGGYNYVSWYQQYPGKAPKLLIYGNSNRPSGVPDRFSGSKSGTSASLAITGLQAEDGADYYCQSYDSSLRVVFGGGTKVTVLG
# notes: Tested as single phage (M13, phagemid pCantab 5E) culture supernatant in ELISA
# Tests used:
# [1] = molecular target: GPC3 expressed on hepatoma cells (HepG2, Huh-7, SK-Hep-1 GPC3) (human, UniProt P51654 25-554); assay: cell-based or functional assay
# [2] = molecular target: T1, His-tagged human GPC3 recombinant protein (purchased from Shanghai Rui Jin Biotech Co., Ltd.) (human, UniProt P51654 25-559, limits assumed); assay: flow cytometry of CAR T cells stained with His-tagged human GPC3 (50 ug/ml), anti-His-tag antibody and FITC secondary
# T1 construct: Bought; construct not described; not shown: His tag
# Experimental: Infected CTL cells were detected by flow cytometry on day 8 of culture for the expression of different chimeric antigen receptors. FACS assays were performed using His-tagged human GPC3 recombinant protein (purchased from Shanghai Rui Jin Biotech Co., Ltd.); the cells were firstly incubated with the protein (50 ug/ml) for 1 hr, washed twice with D-PBS, and Anti-His-tag antibody (1:50 dilution, purchased from Shanghai Reagent Biotechnology Co., Ltd.) was added and incubated for 1 hr and then washed twice with D-PBS and then FITC labeled goat anti-mouse secondary antibody (Shanghai Kangcheng Biotechnology Co., Ltd.), incubated for 50 min, washed with D-PBS for three times, and tested by FACS. Uninfected T lymphocytes was used as a negative control, the positive rates of virus-infected T cells expressing different chimeric antigen receptors are shown in Table 4.
# [3] = molecular target: T2, BSA (bovine serum albumin), negative control protein (bovine, UniProt P02769 25-607); assay: single phage ELISA, BSA coated 100 ng/well
# T2 construct: Coated as negative control in the single phage ELISA
# Experimental: (§1) 96 clones were randomly selected in the clones obtained from the fourth round of screening and their binding capability to human GPC3 was analyzed by single phage ELISA (enzyme-linked immunosorbent assay). For this purpose, each single colony was inoculated in 300 μl of 2×YT/ampicillin medium (containing 2% glucose) in a 96-well deep-well plate and cultured with shaking at 37° C. and 250 rpm for 16 hours. 20 μl of culture was inoculated into 500 μl of 2×YT/ampicillin medium (containing 0.1% glucose) and shaken at 37° C. and 250 rpm for 1.5 hours. To prepare the helper phage solution, 75 μl of M13KO7 (titer of 3×10¹² pfu/ml) was taken and mixed into 15 ml of 2×YT medium and added into a culture plate at 50 μl/well, and incubated at 37° C. and 150 rpm for 30 minutes. And then prepared kanamycin solution (180 μl of 50 mg/ml kanamycin was taken and added into 15 ml of 2×YT medium) was added at 50 μl/well and incubated with shaking for 16 hours at 37° C. and 250 rpm. Finally, cells were precipitated by centrifugation (30 mins, 5000×g, 4° C.) and the supernatant was transferred to a new 96-well deep-well plate.
# (§2) For single phage ELISA, 100 ng/well of antigen GPC3 and negative control protein BSA (100 μl/well) were used in a 96-well MediSorp ELISA plate (purchased from Nunc) and coated overnight at 4° C. […] Extinction values were measured at 450 nm with an enzyme-linked immunosorbent (Bio-Rad).
# [4] = molecular target: T3, human GPC3 recombinant protein (purchased from Shanghai Rui Jin Biotechnology Co., Ltd.) (human, UniProt P51654 25-559, limits assumed); assay: single phage ELISA, GPC3 coated 100 ng/well
# T3 construct: Bought recombinant protein; also called huGPC3; antigen GPC3
# Experimental: as §1, §2
# T2 sequence (P02769 25-607 limits assumed): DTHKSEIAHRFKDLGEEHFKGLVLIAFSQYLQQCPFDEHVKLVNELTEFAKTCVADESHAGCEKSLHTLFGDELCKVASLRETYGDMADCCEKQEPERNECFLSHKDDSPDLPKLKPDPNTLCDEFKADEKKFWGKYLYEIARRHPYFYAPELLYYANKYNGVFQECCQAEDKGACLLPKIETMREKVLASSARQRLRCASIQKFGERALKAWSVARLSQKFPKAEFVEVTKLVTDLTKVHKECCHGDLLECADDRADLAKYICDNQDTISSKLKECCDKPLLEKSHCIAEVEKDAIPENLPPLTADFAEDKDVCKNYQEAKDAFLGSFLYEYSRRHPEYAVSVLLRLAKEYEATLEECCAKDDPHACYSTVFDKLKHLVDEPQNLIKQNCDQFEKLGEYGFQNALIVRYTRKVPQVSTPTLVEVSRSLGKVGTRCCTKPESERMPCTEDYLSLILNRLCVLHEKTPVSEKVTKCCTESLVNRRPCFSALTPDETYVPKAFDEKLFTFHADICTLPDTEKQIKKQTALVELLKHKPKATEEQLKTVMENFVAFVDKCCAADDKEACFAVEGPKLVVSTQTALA
binder,measurement,setting,value
B1,"Cytotoxicity (%) on HepG2 cells, effector target ratio 1:1 (LDH release, 18 h); signalling-dead negative control CAR",[1],2.5%
same,"Cytotoxicity (%) on HepG2 cells, effector target ratio 1:3 (LDH release, 18 h); signalling-dead negative control CAR",[1],3.2%
same,"Cytotoxicity (%) on HepG2 cells, effector target ratio 3:1 (LDH release, 18 h); signalling-dead negative control CAR",[1],4.8%
same,"Cytotoxicity (%) on HuH-7 cells, effector target ratio 1:1 (LDH release, 18 h); signalling-dead negative control CAR",[1],1.3%
same,"Cytotoxicity (%) on HuH-7 cells, effector target ratio 1:3 (LDH release, 18 h); signalling-dead negative control CAR",[1],5.3%
same,"Cytotoxicity (%) on HuH-7 cells, effector target ratio 3:1 (LDH release, 18 h); signalling-dead negative control CAR",[1],3.2%
same,Positive rate of T cells transfection,[2],59%
B2,"Cytotoxicity (%) on HepG2 cells, effector target ratio 1:1 (LDH release, 18 h)",[1],38.6%
same,"Cytotoxicity (%) on HepG2 cells, effector target ratio 1:3 (LDH release, 18 h)",[1],13.9%
same,"Cytotoxicity (%) on HepG2 cells, effector target ratio 3:1 (LDH release, 18 h)",[1],71.3%
same,"Cytotoxicity (%) on HuH-7 cells, effector target ratio 1:1 (LDH release, 18 h)",[1],32.2%
same,"Cytotoxicity (%) on HuH-7 cells, effector target ratio 1:3 (LDH release, 18 h)",[1],10.2%
same,"Cytotoxicity (%) on HuH-7 cells, effector target ratio 3:1 (LDH release, 18 h)",[1],69.2%
same,Positive rate of T cells transfection,[2],53%
B3,binding result,[3],no binding
same,binding result,[4],binds
B4,binding result,[3],no binding
same,binding result,[4],binds
